Laboratory results as given in patent US20220213461A1.

Legend:
[1] = target: butelase-1 (active form extracted from Clitoria ternatea plant material) (Clitoria ternatea); test: affinity binding of glycosylated enzyme to ConA agarose beads, 4 C 3 h; unbound protein in flow-through measured by A280
[2] = target: butelase-1 (active form extracted from Clitoria ternatea plant material) (Clitoria ternatea); test: affinity binding of glycosylated enzyme to ConA agarose beads; unbound protein measured by A280
[3] = target: biotinylated VyPAL2 (Viola yedoensis); test: affinity binding of biotinylated enzyme to NeutrAvidin agarose beads, pH 6.5, 4 C 3 h; unbound protein measured by A280
[4] = target: biotinylated butelase-1 (Clitoria ternatea); test: as above
[5] = target: T1, GN14-SLAN (GISTKSIPPISYRNSLAN)
T1 chain: GISTKSIPPISYRNSLAN

Concanavalin A (ConA) on agarose beads (from UniProt P02866 30-281)
Yield (%) (observed / expected maximal concentration on beads) [1]: 39% | percent of enzyme remaining in the solution (unbound) [2]: 61%

NeutrAvidin (deglycosylated avidin) on agarose beads (from UniProt P02701 25-152)
Yield (%) (observed / expected maximal concentration on beads) [3]: 45% | Yield (%) (observed / expected maximal concentration on beads) [4]: 49%

B1: VyPAL2 (recombinant, insect-cell expressed, acid-activated active form) (protein)
chain: STNDDDSIGTRWAVLIAGSKGYHNYRHQADVCHMYQILRKGGVKDENIIVFMYDDIAYNESNPFPGIIINKPGGENVYKGVPKDYTGEDINNVNFLAAILGNKSAIIGGSGKVLDTSPNDHIFIYYADHGAPGKIGMPSKPYLYADDLVDTLKQKAATGTYKSMVFYVEACNAGSMFEGLLPEGTNIYAMAASNSTEGSWITYCPGTPDFPPEFDVCLGDLWSITFLEDCDAHNLRTETVHQQFELVKKKIAYASTVSQYGDIPISKDSLSVYMGTDPANDNRTFVDEN
catalytic efficiency (kcat/KM) of cyclization, HPLC-based kinetics, pH 6.5, 37 C [5]: 274,325 M^-1s^-1

B2: butelase-1 (active form extracted from Clitoria ternatea plant material) (protein)
chain: VEGTRWAVLVAGSKGYVNYRHQADVCHAYQILKKGGLKDENIIVFMYDDIAYNESNPHPGVIINHPYGSDVYKGVPKDYVGEDINPPNFYAVLLANKSALTGTGSGKVLDSGPNDHVFIYYTDHGGAGVLGMPSKPYIAASDLNDVLKKKHASGTYKSIVFYVESCESGSMFDGLLPEDHNIYVMGASDTGESSWVTYCPLQHPSPPPEYDVCVGDLFSVAWLEDCDVHNLQTETFQQQYEVVKNKTIVALIEDGTHVVQYGDVGLSKQTLFVYMGTDPAN
catalytic efficiency (kcat/KM) of cyclization, HPLC-based kinetics, pH 6.5, 37 C [5]: 971,936 M^-1s^-1
